Results taken from PMC9859039, “The conserved centrosomin motif, γTuNA, forms a dimer that directly activates microtubule nucleation by the γ-tubulin ring complex (γTuRC)” (eLife, 2022).
Values belong to the molecule of their own block, whether it stands above or below them. No end group written: not given here. 3C = human rhinovirus 3C (PreScission) protease cleavage site; TEV = tobacco etch virus protease cleavage site; Strep‑His = not defined here

Legend:
[1] = biological target: γ-tubulin ring complex (γTuRC), endogenous Xenopus laevis, P23330;Q5U4M5; experiment: pull-down from Xenopus egg extract, western blot quantification; conditions: control (beads) bar est. 0.19, read off a plot; for ratio to parent: parent: est. 1.0; for response: scale: normalized band intensity
[2] = biological target: γ-tubulin ring complex (γTuRC), endogenous Xenopus laevis (Xenopus laevis (endogenous in egg extract)) (UniProt P23330)
[3] = biological target: γ-tubulin ring complex (γTuRC), endogenous Xenopus laevis (Xenopus laevis (endogenous in egg extract)) (UniProt P23330); remark: listed apart in the source
[4] = biological target: AU1-human γTuNA (from Strep-His-Halo-3C-AU1-human γTuNA after PreScission cleavage) (human); experiment: co-sedimentation; γTuRC pulled from egg extract on Halo-3C-AU1-human γTuNA beads, eluted by 3C cleavage, 10–50% w/w sucrose gradient (200,000 g, 2 °C, 3 hr); AU1 in the peak γTuRC fraction by western blot against a titration of AU1
[5] = biological target: Strep-His-TEV-HaloTag-3C-Xenopus γTuNA (Xenopus Cdk5rap2 aa 56–101), wildtype (Xenopus laevis); experiment: pull-down; depletion of Xenopus egg extract with Strep-His-Halo-Xenopus γTuNA-coupled beads, a single round; γ-tubulin left in the extract by western blot against mock-treated extract
[6] = biological target: Strep-His-TEV-HaloTag-3C-Xenopus γTuNA L70A (Xenopus laevis); experiment: pull-down; Halo-Magne beads coupled to N-terminally Halo-tagged γTuNA baits; 200 µL Xenopus egg extract + 800 µL CSFxB (2% sucrose), 2 hr at 4 °C, washed twice, boiled in SDS sample buffer; western blot of GCP5 and γ-tubulin, band intensities normalised to the wildtype bait
[7] = biological target: Strep-His-TEV-HaloTag-3C-Xenopus γTuNA I67A (Xenopus laevis); experiment: as above
[8] = biological target: the molecule itself; experiment: SEC; Superdex 200 increase 10/300 GL, ~50 µM (monomer), CSFxB with 6 mM BME without sucrose, 4 °C, 0.7 mL/min; peak retention volumes compared

γ-tubulin ring complex (γTuRC), endogenous Xenopus laevis (Xenopus laevis (endogenous in egg extract)), sequence (P23330 whole entry, looked up, one chain of several): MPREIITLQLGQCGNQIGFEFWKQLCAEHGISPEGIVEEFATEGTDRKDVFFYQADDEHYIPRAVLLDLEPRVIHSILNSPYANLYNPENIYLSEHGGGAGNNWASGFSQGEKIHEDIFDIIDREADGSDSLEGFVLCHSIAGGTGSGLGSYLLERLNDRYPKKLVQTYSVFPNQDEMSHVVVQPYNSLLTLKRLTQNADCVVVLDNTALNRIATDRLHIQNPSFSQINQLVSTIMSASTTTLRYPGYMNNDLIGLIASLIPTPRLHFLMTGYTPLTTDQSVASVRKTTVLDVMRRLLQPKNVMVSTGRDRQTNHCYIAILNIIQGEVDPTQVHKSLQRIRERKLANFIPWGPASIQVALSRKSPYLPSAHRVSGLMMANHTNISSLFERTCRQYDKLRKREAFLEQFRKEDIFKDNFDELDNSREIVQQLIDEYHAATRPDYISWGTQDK

- ratio to parent ([1]; N=2): 0.66
Molecule: Strep-His-TEV-HaloTag-3C-Xenopus γTuNA (Xenopus Cdk5rap2 aa 56–101), wildtype F63A

- ratio to parent ([1]; N=2): 0.08
- response ([1]; N=3, parent: est. 1.06): 0.02
Molecule: Strep-His-TEV-HaloTag-3C-Xenopus γTuNA (Xenopus Cdk5rap2 aa 56–101), wildtype F75A

- response ([1]; N=3, parent: est. 1.06): 0.01
Molecule: Strep-His-TEV-HaloTag-3C-Xenopus γTuNA (Xenopus Cdk5rap2 aa 56–101), wildtype I67D; L70D

- ratio to parent ([1]; N=2): 0.05
Molecule: Strep-His-TEV-HaloTag-3C-Xenopus γTuNA (Xenopus Cdk5rap2 aa 56–101), wildtype L77A

- response ([1]; N=2, human wildtype not shown in this panel): 0.16
Molecule: Strep-His-TEV-HaloTag-3C-human γTuNA (human CDK5RAP2 aa 53–98), wildtype I67A; L70A

- ratio to parent ([1]; N=3): 0.1
Molecule: Strep-His-TEV-HaloTag-3C-human γTuNA (human CDK5RAP2 aa 53–98), wildtype I67D; L70D

- ratio to parent ([1]; N=3): 0.07
Molecule: Strep-His-TEV-HaloTag-3C-human γTuNA (human CDK5RAP2 aa 53–98), wildtype I67D; L70D; L77D

- MT number (EB1 spots) in egg extract with 2 µM γTuNA, relative to wildtype γTuNA (% of wildtype) [2]: 50
Molecule: Strep-His-Xenopus γTuNA I67A (domain or fragment)

- MT number (EB1 spots) in egg extract with 2 µM γTuNA, relative to wildtype γTuNA (% of wildtype) [2]: 6
Molecule: Strep-His-Xenopus γTuNA L70A (domain or fragment)

- MT number (EB1 spots) in Xenopus egg extract by TIRF, titration of γTuNA up to 3.6 µM, fold over buffer [3]: 75 fold
Molecule: Strep-His-Xenopus γTuNA, wildtype (domain or fragment)

- percent of purified γTuRCs that retain a γTuNA dimer [4]: 33%
- percent of γ-tubulin signal lost from the extract after one depletion [5]: > 75%
- γTuRC pulled down, percent of wildtype [6]: 35%
- γTuRC pulled down, percent of wildtype [7]: 67%
Molecule: γ-tubulin ring complex (γTuRC), endogenous Xenopus laevis (from UniProt P23330 1-451; Q5U4M5 1-72)

B1: Strep-His-TEV-HaloTag-3C-Xenopus γTuNA (Xenopus Cdk5rap2 aa 56–101), wildtype (domain or fragment, Xenopus laevis)
chain: {Strep‑His-TEV-HaloTag-3C}-MKDFEKQIAELKKENFNLKLRIYFLEEQVQQKCDNSSEDLYRMNIE
modifications: reading uncertain
notes: γTuNA (CM1) domain of Xenopus laevis Cdk5rap2 isoform X1 (905 aa), aa 56–101; TEV and PreScission (3C) cleavage sites lie between the tags and γTuNA; also called Halo-Xenopus γTuNA; Strep-His-Halo-Xenopus γTuNA; source: E. coli Rosetta 2 (DE3), purified (Strep-Tactin); not shown: StrepTagII, N-terminal, kept; 6xHis, N-terminal, kept; HaloTag, N-terminal, kept
- stoichiometry N [8]: 2

B2: Strep-His-TEV-HaloTag-3C-human γTuNA (human CDK5RAP2 aa 53–98), wildtype (domain or fragment)
chain: {Strep‑His-TEV-HaloTag-3C}-SPTRARNMKDFENQITELKKENFNLKLRIYFLEERMQQEFHGPTEH
modifications: reading uncertain
notes: γTuNA (CM1) domain of human CDK5RAP2 isoform A (1893 aa), aa 53–98; TEV and PreScission (3C) cleavage sites lie between the tags and γTuNA; also called Halo-human γTuNA; human wildtype Halo-γTuNA; source: E. coli Rosetta 2 (DE3), purified (Strep-Tactin); not shown: StrepTagII, N-terminal, kept; 6xHis, N-terminal, kept; HaloTag, N-terminal, kept
- stoichiometry N [8]: 2

B3: Strep-His-TEV-HaloTag-3C-Xenopus γTuNA F75A (Xenopus F71A) (domain or fragment, Xenopus laevis)
chain: {Strep‑His-TEV-HaloTag-3C}-MKDFEKQIAELKKENANLKLRIYFLEEQVQQKCDNSSEDLYRMNIE
modifications: reading uncertain
notes: γTuNA of Xenopus laevis Cdk5rap2 isoform X1, aa 56–101; it is F71 in Xenopus; also called Halo-Xenopus γTuNA F75A; Xenopus F75A mutant; source: E. coli Rosetta 2 (DE3), purified (Strep-Tactin); not shown: StrepTagII, N-terminal, kept; 6xHis, N-terminal, kept; HaloTag, N-terminal, kept
- binding result [8]: binds
